Reference: patent US20220089743A1 (Chugai, published 2022)
Substitutions are numbered along the chain they refer to. Where two headings read alike, the source gives them in different places.

T1: HLA-DQ2.2 on Ba/F3 cells (human, UniProt P01909 24-216, limits assumed)
T1 construct: whole, on cells; also called Ba/F3-HLA-DQ2.2
T1 MHC II alpha: not shown
T1 MHC II beta: not shown

T2: HLA-DQ7.3 on Ba/F3 cells (human, UniProt P01909 24-216; P01920 33-230, limits assumed)
T2 construct: whole, on cells; also called Ba/F3-HLA-DQ7.3
T2 MHC II alpha: not shown
T2 MHC II beta: not shown

T3: HLA-DQ8 on Ba/F3 cells (human, UniProt P01909 24-216; P01920 33-230, limits assumed)
T3 construct: whole, on cells; also called Ba/F3-HLA-DQ8
T3 MHC II alpha: not shown
T3 MHC II beta: not shown

T4: HLA-DQ6.3 on Ba/F3 cells (human, UniProt P01920 33-230, limits assumed)
T4 construct: whole, on cells; also called Ba/F3-HLA-DQ6.3
T4 MHC II alpha: not shown
T4 MHC II beta: not shown

T5: HLA-DR on Ba/F3 cells (human, UniProt P01903 26-216; P79483 30-227, limits assumed)
T5 construct: whole, on cells; also called Ba/F3-HLA-DR
T5 MHC II alpha: not shown
T5 MHC II beta: not shown

T6: HLA-DQ5.1 on Ba/F3 cells (human, limits assumed)
T6 construct: whole, on cells; also called Ba/F3-HLA-DQ5.1
T6 MHC II alpha: not shown
T6 MHC II beta: not shown

B1: DQN0344H1013/L0620//DQN0385H1270/L0722-F6 (bispecific antibody)
heavy 1: QVQLVESGGGVVQPGRSLRLSCAASGFTFSSAYWMVWVRQAPGQGLEWMGAVYGGSDTTYYAKWTEGRFTISRDTSKNTLYLQMNSLRAEDTAVYYCAREPLNYYYYGELNVWGQGTLVTVSSASTKGPSVFPLAPSSKSTSGGTAALGCLVKDYFPEPVTVSWNSGALTSGVHTFPAVLKSSGLYSLSSVVTVPSSSLGTQTYICNVNHKPSNTKVDKRVEPKSCDKTHTCPPCPAPELRRGPSVFLFPPKPKDTLMISRTPEVTCVVVDVSHEDPEVKFNWYVDGVEVHNAKTKPREEQYNSTYRVVSVLTVLHQDWLNGKEYKCKVSNKALPAPIEKTISKAKGQPREPQVYTLPPSREEMTKNQVSLTCLVKGFYPSDIAVEWESNGQPENNYKTTPPYLDSDGSFFLYSKLTVDKSRWQEGNVFSCSVLHEALHAHYTREELSLSP
light 1: DIQMTQSPSSLSASVGDRVTITCQATENIYSGLAWYQQKPGKAPKLLIYYVSTLAYGIPARFSGSGSGTDFTLTISSLEPEDFAVYYCQTYEDVSAVTFGQGTKVEIKRTVAAPSVFIFPPSDEQLKSGTAEVVCLLNNFYPREAKVQWKVDNALQSGNSEESVTEQDSKDSTYSLSSTLTLSKADYEKHKVYACEVTHQGLSSPVTKSFNRGEC
heavy 2: QVQLVESGGGVVQPGRSLRLSCAASGFTFSEWYFMSWVRQAPGKGLEWVASIDTGSGSIDYAEWVEGRFTISRDNSKNTLYLQMNSLRAEDTAVYYCARDIGIDYNFWGPGTLVTVSSASTKGPSVFPLAPSSKSTSGGTAALGCLVEDYFPEPVTVSWNSGALTSGVHTFPAVLESSGLYSLSSVVTVPSSSLGTKTYICNVNHKPSNTKVDKRVEPKSCDKTHTCPPCPAPELRRGPSVFLFPPKPKDTLMISRTPEVTCVVVDVSHEDPEVKFNWYVDGVEVHNAKTKPREEQYNSTYRVVSVLTVLHQDWLNGKEYKCKVSNKALPAPIEKTISKAKGQPREPQVYTLPPSRKEMTKNQVSLTCLVKGFYPSDIAVEWESNGQPENNYKTTPPYLDSDGSFFLYSKLTVDKSRWQQGNVFSCSVLHEALHAHYTRKELSLSP
light 2: DIQMTQSPSSLSASVGDRVTITCQTTQSISSYLNWYQQKPGQPPKLLIYYASTKAEGIPARFSGSGLGTDFTLTISSLQPEDFAVYYCHYGISKVSFGQGTKVEIKRTVAAPSVFIFPPSDEQLKSGTAKVVCLLNNFYPREAKVQWKVDNALQSGNSKESVTEQDSKDSTYSLSSTLTLSKADYEKHKVYACEVTHQGLSSPVTKSFNRGEC
B2: DQN0344H1013/L0620//DQN0385H1352/L0681-F6 (bispecific antibody)
heavy 1: B1 heavy 1
light 1: B1 light 1
heavy 2: B1 heavy 2 with T28E
light 2: B1 light 2 with Q79E
B3: DQN0344H1013/L0620//DQN0385H1521/L0605-F6 (bispecific antibody)
heavy 1: B1 heavy 1
light 1: B1 light 1
heavy 2: B1 heavy 2 with S30E, E31S
light 2: B1 light 2 with L67S, Q79E

Assays:
[1] = molecular target: HLA-DQ2.5 on IHW09023 cells loaded with gamma 4d gliadin peptide (human; wheat); assay: cell-based or functional assay
[2] = molecular target: HLA-DQ2.5 on IHW09023 cells loaded with 33 mer gliadin peptide (human; wheat); assay: cell-based or functional assay
[3] = molecular target: HLA-DQ2.5 on IHW09023 cells loaded with gamma 4a gliadin peptide (human; wheat); assay: cell-based or functional assay
[4] = molecular target: HLA-DQ2.5 on IHW09023 cells loaded with gamma 2 gliadin peptide (human; wheat); assay: cell-based or functional assay
[5] = molecular target: HLA-DQ2.5 on IHW09023 cells loaded with gamma 1 gliadin peptide (human; wheat); assay: cell-based or functional assay
[6] = molecular target: HLA-DQ2.5 on IHW09023 cells loaded with omega1/2 gliadin peptide (human; wheat); assay: cell-based or functional assay
[7] = molecular target: HLA-DQ2.5 on IHW09023 cells loaded with gamma 3 gliadin peptide (human; wheat); assay: cell-based or functional assay
[8] = molecular target: HLA-DQ2.5 on IHW09023 cells loaded with BC hordein peptide (human; barley); assay: cell-based or functional assay
HLA-DQ2.2 on Ba/F3 cells [9] = molecular target: T1, HLA-DQ2.2 on Ba/F3 cells; assay: FACS, Ba/F3 cells; %MFI with IC17dK 0 and DQN0139bb 100
HLA-DQ7.5 on Ba/F3 cells [10] = molecular target: T7, HLA-DQ7.5 on Ba/F3 cells (human, UniProt P01909 24-216; P01920 33-230, limits assumed); assay: as above
T7 construct: whole, on cells; also called Ba/F3-HLA-DQ7.5

HLA-DQ7.3 on Ba/F3 cells [11] = molecular target: T2, HLA-DQ7.3 on Ba/F3 cells; assay: as above
HLA-DQ2.5 on Ba/F3 cells [12] = molecular target: T8, HLA-DQ2.5 on Ba/F3 cells (human, UniProt P01909 24-216, limits assumed); assay: as above
T8 construct: whole, on cells; MHC class II without a fused peptide; also called Ba/F3-HLA-DQ2.5

HLA-DQ8 on Ba/F3 cells [13] = molecular target: T3, HLA-DQ8 on Ba/F3 cells; assay: as above
HLA-DQ6.3 on Ba/F3 cells = molecular target: T4, HLA-DQ6.3 on Ba/F3 cells; assay: FACS, Ba/F3 cells; raw MFI
HLA-DR on Ba/F3 cells = molecular target: T5, HLA-DR on Ba/F3 cells; assay: FACS, Ba/F3 cells; raw MFI
HLA-DP on Ba/F3 cells = molecular target: T9, HLA-DP on Ba/F3 cells (human, UniProt P20036 29-222; P04440 30-225, limits assumed); assay: FACS, Ba/F3 cells; raw MFI
T9 construct: whole, on cells; also called Ba/F3-HLA-DP

HLA-DQ5.1 on Ba/F3 cells = molecular target: T6, HLA-DQ5.1 on Ba/F3 cells; assay: FACS, Ba/F3 cells; raw MFI
HLA-DQ2.2 on Ba/F3 cells [14] = molecular target: T1, HLA-DQ2.2 on Ba/F3 cells; assay: FACS, Ba/F3 cells; %MFI with IC17dK 0 and DQN0139bb 100
HLA-DQ7.5 on Ba/F3 cells [15] = molecular target: T7, HLA-DQ7.5 on Ba/F3 cells; assay: as above; remark: listed apart in the source
HLA-DQ7.3 on Ba/F3 cells [16] = molecular target: T2, HLA-DQ7.3 on Ba/F3 cells; assay: as above
HLA-DQ2.5 on Ba/F3 cells [17] = molecular target: T8, HLA-DQ2.5 on Ba/F3 cells; assay: as above; remark: listed apart in the source
HLA-DQ8 on Ba/F3 cells [18] = molecular target: T3, HLA-DQ8 on Ba/F3 cells; assay: as above
HLA-DQ2.2 on Ba/F3 cells [19] = molecular target: T1, HLA-DQ2.2 on Ba/F3 cells; assay: as above
HLA-DQ7.5 on Ba/F3 cells [20] = molecular target: T7, HLA-DQ7.5 on Ba/F3 cells; assay: as above; remark: listed apart in the source
HLA-DQ7.3 on Ba/F3 cells [21] = molecular target: T2, HLA-DQ7.3 on Ba/F3 cells; assay: as above
HLA-DQ2.5 on Ba/F3 cells [22] = molecular target: T8, HLA-DQ2.5 on Ba/F3 cells; assay: as above; remark: listed apart in the source
HLA-DQ8 on Ba/F3 cells [23] = molecular target: T3, HLA-DQ8 on Ba/F3 cells; assay: as above

T9 sequence (P20036 29-222 limits assumed, chain 1 of 4, other chains not shown): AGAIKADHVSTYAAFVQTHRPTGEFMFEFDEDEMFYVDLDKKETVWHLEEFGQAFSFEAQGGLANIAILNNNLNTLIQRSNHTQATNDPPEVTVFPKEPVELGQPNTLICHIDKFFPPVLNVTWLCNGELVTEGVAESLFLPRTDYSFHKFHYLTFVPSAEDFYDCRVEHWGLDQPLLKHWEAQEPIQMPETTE
T9 sequence (P04440 30-225 limits assumed, chain 2 of 4, other chains not shown): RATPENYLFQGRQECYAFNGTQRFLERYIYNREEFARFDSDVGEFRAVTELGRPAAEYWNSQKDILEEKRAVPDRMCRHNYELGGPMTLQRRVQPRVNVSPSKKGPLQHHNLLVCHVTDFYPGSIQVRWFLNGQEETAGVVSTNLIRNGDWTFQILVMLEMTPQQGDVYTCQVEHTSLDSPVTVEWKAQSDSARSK

| Binder | IC50, γ4d gliadin TCR, 100 µM γ4d gliadin [1] [ng/mL] | IC50, α1a gliadin TCR, 250 nM 33mer gliadin [2] [ng/mL] | IC50, α1b gliadin TCR, 250 nM 33mer gliadin [2] [ng/mL] | IC50, α2 gliadin TCR, 250 nM 33mer gliadin [2] [ng/mL] | IC50, γ4a gliadin TCR, 25 µM γ4a gliadin [3] [ng/mL] | IC50, γ2 gliadin TCR, 250 nM γ2 gliadin [4] [ng/mL] | IC50, γ1 gliadin TCR, 250 nM γ1 gliadin [5] [ng/mL] | IC50, ω1 gliadin TCR, 25 µM ω1/2 gliadin [6] [ng/mL] | IC50, ω2 gliadin TCR, 250 nM ω1/2 gliadin [6] [ng/mL] | IC50, γ3 gliadin TCR, 100 µM γ3 gliadin [7] [ng/mL] | IC50, BC hordein TCR, 250 nM BC hordein [8] [ng/mL] | binding result (HLA-DQ6.3 on Ba/F3 cells) | binding result (HLA-DR on Ba/F3 cells) | binding result (HLA-DP on Ba/F3 cells) | binding result (HLA-DQ5.1 on Ba/F3 cells) | further results |
| --- | --- | --- | --- | --- | --- | --- | --- | --- | --- | --- | --- | --- | --- | --- | --- | --- |
| B1 | 10.1 | 0.27 | 1.25 | 0.33 | 1150 | 277 | 1.03 | 2.17 | 0.22 | 3.31 | 9.7 | no binding (tested: 0.05 ug/mL) | no binding (tested: 0.05 ug/mL) | no binding (tested: 0.05 ug/mL) | no binding (tested: 0.05 ug/mL) | binding result (HLA-DQ2.2 on Ba/F3 cells [9]): no binding (tested: 0.05 ug/mL); binding result (HLA-DQ7.5 on Ba/F3 cells [10]): no binding (tested: 0.05 ug/mL); binding result (HLA-DQ7.3 on Ba/F3 cells [11]): no binding (tested: 0.05 ug/mL); binding result (HLA-DQ2.5 on Ba/F3 cells [12]): no binding (tested: 0.05 ug/mL); binding result (HLA-DQ8 on Ba/F3 cells [13]): no binding (tested: 0.05 ug/mL) |
| B2 | 3.15 | 0.26 | 1.13 | 0.38 | 1730 | 279 | 1.71 | 1.88 | 0.27 | 3.15 | 11.6 | no binding (tested: 0.05 ug/mL) | no binding (tested: 0.05 ug/mL) | no binding (tested: 0.05 ug/mL) | no binding (tested: 0.05 ug/mL) | binding result (HLA-DQ2.2 on Ba/F3 cells [14]): no binding (tested: 0.05 ug/mL); binding result (HLA-DQ7.5 on Ba/F3 cells [15]): no binding (tested: 0.05 ug/mL); binding result (HLA-DQ7.3 on Ba/F3 cells [16]): no binding (tested: 0.05 ug/mL); binding result (HLA-DQ2.5 on Ba/F3 cells [17]): no binding (tested: 0.05 ug/mL); binding result (HLA-DQ8 on Ba/F3 cells [18]): no binding (tested: 0.05 ug/mL) |
| B3 | 13 | 0.28 | 1.76 | 0.33 | 1350 | 853 | 0.68 | 1.91 |  | 1.4 | 8.98 | no binding (tested: 0.05 ug/mL) | no binding (tested: 0.05 ug/mL) | no binding (tested: 0.05 ug/mL) | no binding (tested: 0.05 ug/mL) | binding result (HLA-DQ2.2 on Ba/F3 cells [19]): no binding (tested: 0.05 ug/mL); binding result (HLA-DQ7.5 on Ba/F3 cells [20]): no binding (tested: 0.05 ug/mL); binding result (HLA-DQ7.3 on Ba/F3 cells [21]): no binding (tested: 0.05 ug/mL); binding result (HLA-DQ2.5 on Ba/F3 cells [22]): no binding (tested: 0.05 ug/mL); binding result (HLA-DQ8 on Ba/F3 cells [23]): no binding (tested: 0.05 ug/mL) |
